Experimental data published in patent US20220089777A1 (ARONORA, published 2022).

B1: AB023, humanized anti-FXI monoclonal antibody (variant VH3/Vκ3, clone 3G3) (antibody, V domains shown)
VH: QVQLQESGPGLVKPSETLSITCTVSGFSLTGYGIYWVRQPPGKGLEWLGMIWGDGRTDYNSALKSRVTISKDNSKSQVSLKLSSVTAADTARYYCARDYYGSKDYWGQGTTVTVSS
VL: DIQMTQSPSSLSASVGDRVTITCKASQDVSTAVAWYQQKPGKAPKLLIYLTSYRNTGVPDRFSGSGSGTDFTFTISSLQPEDIAVYYCQQHYKTPYSFGGGTKVEIKR
notes: Human IgG4 with S241P (Kabat) hinge modification, kappa light chain; also called A13023; A8023

How the values were obtained:
[1] = biological target: T1, human coagulation factor XI (human, UniProt P03951 19-625); test: solid phase binding assay, biotinylated 14E11 on immobilized human FXI
[2] = biological target: T2, mouse coagulation factor XI (mouse, UniProt Q91Y47 19-624); test: solid phase binding assay, biotinylated 14E11 on immobilized mouse FXI
T2 construct: also called mouse FXI; mFXI

[3] = biological target: human activated coagulation factor XI (FXIa) (human) (UniProt P03951); test: solid phase binding assay, biotinylated 14E11 on immobilized human FXIa
[4] = biological target: human activated coagulation factor XI (FXIa) (human) (UniProt P03951); test: earlier solid phase binding assay (FIG. 2D), biotinylated 14E11 on immobilized FXIa
[5] = biological target: T1, human coagulation factor XI; test: earlier solid phase binding assay (FIG. 2D), biotinylated 14E11 on immobilized FXI
[6] = biological target: T2, mouse coagulation factor XI; test: as above
[7] = biological target: T1, human coagulation factor XI; test: cell-based or functional assay
[8] = biological target: T1, human coagulation factor XI; test: solid phase binding assay, biotinylated antibody on immobilized FXI, apparent Kd
[9] = biological target: T2, mouse coagulation factor XI; test: as above
[10] = biological target: T3, human activated coagulation factor XI (FXIa) (human, UniProt P03951 19-625); test: solid phase binding assay, biotinylated antibody on immobilized FXIa, apparent Kd
T3 construct: also called human FXIa; hFXIa
Protocol: Microtiter plates were coated with FXI or FXIa (2 μg/ml, 100 μL/well) in 50 mmol/L Na₂CO₃ pH 9.6 was incubated overnight at 4° C. in Immulon 2HB microtiter plates (Thermo Scientific). Wells were blocked with 150 μL phosphate buffered saline (PBS) with 2% BSA for 1 hour at room temperature. […] After washing with PBS-0.1% Tween-20 (PBS T), 100 μL streptavidin-horse-radish-peroxidase (ThermoFisher Scientific, 1:8000 dilution in FIBS) was added, and incubated at room temperature for 90 minutes. After washing with PBS-T, 100 μL substrate solution (12 mL 30 mmol/L citric acid; 100 mmol/L Na₂HPO₄, pH 5.0; and 1 o-phenylenediamine dihydrochloride tablet, 12 μL 30% H₂O₂) was added. Reactions were stopped after 10 min with 50 μL 2.5 M H₂SO₄. […] The data was analyzed by non-linear regression analysis and the apparent Kd (equilibrium dissociation constant) was calculated as the concentration of AB023 needed to achieve half-max binding at equilibrium using GraphPad Prism (v. 5.0).

Molecule | EC50 (read off the curve) [1] [pM] | EC50 (read off the curve) [2] [pM] | EC50 (read off the curve) [3] [pM] | Kd [4] [pM] | Kd [5] [pM] | Kd [6] [pM] | aPTT of plasma, antibody concentration at maximum inhibition [7] [nM] | Kd [8] [pM] | Kd [9] [pM] | Kd [10] [pM] | fold prolongation of aPTT of FXI deficient plasma + 10 µg/mL FXI after adding 100 µg/mL AB023 [7] [fold]
14E11, murine monoclonal anti-FXI antibody | 3 | 3 | 3 | 2 to 3 | 2 to 3 | 2 to 3 | 25 to 50 | 390 | 70 |  | 
B1 |  |  |  |  |  |  |  | 3200 | 160 | 1300 | ~2
